Measured values from IntAct's records for PubMed 16956611.

B1: Histone deacetylase 7 (Mus musculus), Q8C2B3 (parent)
chain: MHSPGAGCPALQPDTPGSQPQPMDLRVGQRPTVEPPPEPALLTLQHPQRLHRHLFLAGLHQQQRSAEPMRLSMDPPMPELQGGQQEQELRQLLNKDKSKRSAVASSVVKQKLAEVILKKQQAALERTVHPSSPSIPYRTLEPLDTEGAARSVLSSFLPPVPSLPTEPPEHFPLRKTVSEPNLKLRYKPKKSLERRKNPLLRKESAPPSLRRRPAETLGDSSPSSSSTPASGCSSPNDSEHGPNPALGSEADGDRRTHSTLGPRGPVLGNPHAPLFLHHGLEPEAGGTLPSRLQPILLLDPSVSHAPLWTVPGLGPLPFHFAQPLLTTERLSGSGLHRPLNRTRSEPLPPSATASPLLAPLQPRQDRLKPHVQLIKPAISPPQRPAKPSEKPRLRQIPSAEDLETDGGGVGPMANDGLEHRESGRGPPEGRGSISLQQHQQVPPWEQQHLAGRLSQGSPGDSVLIPLAQVGHRPLSRTQSSPAAPVSLLSPEPTCQTQVLNSSETPATGLVYDSVMLKHQCSCGDNSKHPEHAGRIQSIWSRLQERGLRSQCECLRGRKASLEELQSVHSERHVLLYGTNPLSRLKLDNGKLTGLLAQRTFVMLPCGGVGVDTDTIWNELHSSNAARWAAGSVTDLAFKVASRELKNGFAVVRPPGHHADHSTAMGFCFFNSVAIACRQLQQHGKASKILIVDWDVHHGNGTQQTFYQDPSVLYISLHRHDDGNFFPGSGAVDEVGTGSGEGFNVNVAWAGGLDPPMGDPEYLAAFRIVVMPIAREFAPDLVLVSAGFDAAEGHPAPLGGYHVSAKCFGYMTQQLMNLAGGAVVLALEGGHDLTAICDASEACVAALLGNKVDPLSEESWKQKPNLSAIRSLEAVVRVHRKYWGCMQRLASCPDSWLPRVPGADAEVEAVTALASLSVGILAEDRPSERLVEEEEPMNL

Variants of: B1
Settings: with mef2a_mouse Mef2a

| Variant | effect of a mutation on the interaction |
| --- | --- |
| S178A;S344A;S479A | disrupting interaction strength |

Variants of: B1
Settings: with 1433e_mouse Ywhae

| Variant | effect of a mutation on the interaction |
| --- | --- |
| S178E;S344E;S479E | disrupting interaction |

Variants of: B1
Settings: with 1433e_mouse Ywhae
Remark: another data set of the same source

| Variant | effect of a mutation on the interaction |
| --- | --- |
| S178E;S344E;S479E | disrupting interaction |
